Assay results as given in patent US20030021774.

Key:
[1] = target: T1, Soybean Kunitz Trypsin Inhibitor, P01070
T1 chain: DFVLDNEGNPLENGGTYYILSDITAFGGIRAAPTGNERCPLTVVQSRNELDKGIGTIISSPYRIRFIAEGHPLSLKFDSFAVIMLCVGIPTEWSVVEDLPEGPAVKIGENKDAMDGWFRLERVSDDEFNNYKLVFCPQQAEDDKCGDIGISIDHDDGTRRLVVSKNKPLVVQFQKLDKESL

[2] = target: T2, soybean Bowman-Birk Inhibitor, P01055
T2 chain: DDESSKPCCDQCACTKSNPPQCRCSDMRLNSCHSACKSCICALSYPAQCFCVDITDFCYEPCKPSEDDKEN

[3] = target: soybean agglutinin (SBA), P05046
soybean agglutinin (SBA), P05046, sequence (P05046 33-285): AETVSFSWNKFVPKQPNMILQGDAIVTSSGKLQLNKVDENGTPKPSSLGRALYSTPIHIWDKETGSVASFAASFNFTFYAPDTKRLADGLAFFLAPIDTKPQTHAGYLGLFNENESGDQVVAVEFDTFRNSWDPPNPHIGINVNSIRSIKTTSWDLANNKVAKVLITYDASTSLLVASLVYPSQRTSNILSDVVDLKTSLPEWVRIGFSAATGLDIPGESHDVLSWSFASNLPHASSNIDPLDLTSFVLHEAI

B1: protease derived from Bacillus sp. NCIMB 40484 (protein)
chain: MKFKKIAALSLATSLALFPAFGGSSLAKEAPKPFQPINKTLDKGAFESGEVIVKFKDGVSKKAQGSALNKAEANEQKASAKDPFQVLEVADVDQAVKALENNPNVEYAEPNYTFQATWSPNDPYYSAYQYGPQNTSTPAAWDVTRGSSTQTVAVLDSGVDYNHPDLARKVIKGYDFIDRDNNPMDLNGHGTHVAGTVAADTNNGIGVAGMAPDTKILAVRVLDANGSGSLDSIASGIRYAADQGAKVLNLSLGCECNSTTLKSAVDYAWNKGAVVVAAAGNDNVSRTFQPASYPNAIAVGAIDSNDRKASFSNYGTWVDVTAPGVNIASTVPNNGYSYMSGTSMASPHVAGLAALLASQGKNNVQIRQAIEQTADKISGTGTNFKYGKINSNKAVRY
[1]
  % of anti-nutritional factor degraded (SDS-PAGE band scanning): 100%
[2]
  % of anti-nutritional factor degraded (SDS-PAGE band scanning): 41%
[3]
  % of anti-nutritional factor degraded (SDS-PAGE band scanning): 21%
